Source: patent US20060142189A1 (MOUNT SINAI SCHOOL OF MEDICINE OF NEW YORK UNIVERSITY, published 2006)
Ends that are not written are not given here. * marks the point of attachment. Biotin = O=C1N[C@H]2[C@H](CS[C@H]2CCCCC(=O)*)N1

Biological target: ankyrin B (endogenous in ND-7 cells)
Experiment: cell-based or functional assay

- velocity of L1-CAM directed movement on the cell surface, against cells treated with control peptide or untreated cells: 2 fold
Binder: Biotin-RQIKIWFQNRRMKWKKQFNEDGSFIGQF [AP-YF peptide]
